# US20230322957A1 (ENGMAB SARL, published 2023)
# T1: human BCMA on the cell surface (human, UniProt Q02223 1-184)
# T1 sequence (looked up): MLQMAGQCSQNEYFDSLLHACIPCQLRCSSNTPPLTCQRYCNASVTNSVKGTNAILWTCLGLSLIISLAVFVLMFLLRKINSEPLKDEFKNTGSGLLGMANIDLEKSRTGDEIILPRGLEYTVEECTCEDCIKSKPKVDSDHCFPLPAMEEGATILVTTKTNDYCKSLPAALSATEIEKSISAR
# Tests used:
# Test in all cases: cell-based or functional assay
# [1] = biological target: T1, human BCMA on the cell surface
# [2] = biological target: T1, human BCMA on the cell surface; remark: listed apart in the source
# [3] = biological target: T1, human BCMA on the cell surface; remark: listed apart in the source
binder,measurement,setting,value
"21-TCBcv (bispecific antibody, human IgG1, kappa, L234A L235A) heavy 1: not shown heavy 2: EVQLLESGGGLVQPGGSLRLSCAASGFTFSDNAMGWVRQAPGKGLEWVSAISGPGSSTYYADSVKGRFTISRDNSKNTLYLQMNSLRAEDTAVYYCAKVLGWFDYWGQGTLVTVSSASTKGPSVFPLAPSSKSTSGGTAALGCLVEDYFPEPVTVSWNSGALTSGVHTFPAVLQSSGLYSLSSVVTVPSSSLGTQTYICNVNHKPSNTKVDEKVEPKSCDKTHTCPPCPAPEAAGGPSVFLFPPKPKDTLMISRTPEVTCVVVDVSHEDPEVKFNWYVDGVEVHNAKTKPREEQYNSTYRVVSVLTVLHQDWLNGKEYKCKVSNKALGAPIEKTISKAKGQPREPQVCTLPPSRDELTKNQVSLSCAVKGFYPSDIAVEWESNGQPENNYKTTPPVLDSDGSFFLVSKLTVDKSRWQQGNVFSCSVMHEALHNHYTQKSLSLSPGK light 1: EIVLTQSPGTLSLSPGERATLSCRASQSVSEYYLAWYQQKPGQAPRLLIEHASTRATGIPDRFSGSGSGTDFTLTISRLEPEDFAVYYCQQYGYPPDFTFGQGTKVEIKRTVAAPSVFIFPPSDRKLKSGTASVVCLLNNFYPREAKVQWKVDNALQSGNSQESVTEQDSKDSTYSLSSTLTLSKADYEKHKVYACEVTHQGLSSPVTKSFNRGEC light 2: EVQLLESGGGLVQPGGSLRLSCAASGFTFSTYAMNWVRQAPGKGLEWVSRIRSKYNNYATYYADSVKGRFTISRDDSKNTLYLQMNSLRAEDTAVYYCVRHGNFGNSYVSWFAYWGQGTLVTVSSASVAAPSVFIFPPSDEQLKSGTASVVCLLNNFYPREAKVQWKVDNALQSGNSQESVTEQDSKDSTYSLSSTLTLSKADYEKHKVYACEVTHQGLSSPVTKSFNRGEC","EC50 redirected T-cell killing of H929 cells (LDH release), Donor 1",[1],0.0971 nM
same,"EC50 redirected T-cell killing of H929 cells (LDH release), Donor 3",[1],0.0421 nM
same,"EC50 redirected T-cell killing of H929 cells (LDH release), Donor 4",[1],0.0539 nM
same,"EC50 redirected T-cell killing of H929 cells (LDH release), Donor 5",[1],0.0387 nM
same,"EC50 redirected T-cell killing of L363 cells (LDH release), Donor 1",[2],0.0836 nM
same,"EC50 redirected T-cell killing of L363 cells (LDH release), Donor 2",[2],0.0384 nM
same,"EC50 redirected T-cell killing of L363 cells (LDH release), Donor 3",[2],0.0189 nM
same,"EC50 redirected T-cell killing of L363 cells (LDH release), Donor 4",[2],0.0191 nM
same,"EC50 redirected T-cell killing of L363 cells (LDH release), Donor 5",[2],0.0464 nM
same,"EC50 redirected T-cell killing of RPMI-8226 cells (LDH release), Donor 2",[3],0.0413 nM
same,"EC50 redirected T-cell killing of RPMI-8226 cells (LDH release), Donor 3",[3],0.0088 nM
same,"EC50 redirected T-cell killing of RPMI-8226 cells (LDH release), Donor 4",[3],0.004 nM
same,"EC50 redirected T-cell killing of RPMI-8226 cells (LDH release), Donor 5",[3],0.0084 nM
